Read-outs that look alike come from different tables or passages of the source.

Broadly, the EC50 (read off the curve) is the concentration giving half of the maximal effect. A low value points to a more potent agent.

Assay [1] deals with T1, TNFα, extracellular domain (amino acid residue 1-157), 6xHis tag (human, UniProt P01375 57-233).
T1 construct: extracellular domain; Expressed in E. coli; The printed residues 1-157 seem to count on the soluble form, not on the precursor; also called human TNFα; tumor necrosis factor alpha
Nature of the assay: ELISA, coated target, A405. The procedure:
(§1) In order to measure the affinity and cross reactivity of the anti-DR4, -DR5 and -TNFα protein scaffold variants based on the Kringle domain structure to the target molecules, an enzyme-linked immunosorbent assay (ELISA) was performed. The target molecules DR4, DR5, TNFα and DcR1, DcR2 were attached to a 96 well EIA/RIA plate (COSTARCorning In., USA) by its reaction at 37° C. for 1 hour, and washed three times with 0.1% PBST (0.1% Tween20, pH 7.4, 137 mM NaCl, 10 mM Phosphate, 2.7 mM KCl, SIGMA-ALDRICH Co., USA) for 10 minutes. The target molecules were attached for 1 hour to a 96 well EIA/RIA plate in 1% PBSB (1% BSA, pH 7.4, 137 mM NaCl, 10 mM Phosphate, 2.7 mM KCl, SIGMA-ALDRICH Co., USA), and then washed three times with 0.1% PBST (0.1% Tween 20, pH 7.4, 137 mM NaCl, 10 mM Phosphate, 2.7 mM KCl, SIGMA-ALDRICH Co., USA) for 10 minutes. Then, the anti-DR4, -DR5 and -TNFα Kringle domain variants were bound, and washed three times with 0.1% PBST for 10 minutes. The anti-DR4, -DR5 and -TNFα Kringle domain variants were primarily bound to mouse-derived anti-c-myc 9e10 mAb (Ig Therapy, Korea), and secondarily bound to alkaline phosphatase (AP)-conjugated anti-mouse mAb (Sigma). Each of the Kringle domain variants was reacted with […] (pNPP, Sigma-aldrich Co., USA) and quantified at an absorbance of 405 nm.
In general terms: ELISA stands for enzyme-linked immunosorbent assay.

For assay [2], the target named is T1, TNFα, extracellular domain (amino acid …). The assay can be described thus: ELISA, coated target, A405. The source holds these as a separate data set.
Assay [3] has the same target. Nature of the assay: cell-based or functional assay.
Assay [4] deals with T2, DcR2 (UniProt Q9UBN6 56-211, limits assumed).
T2 sequence (looked up): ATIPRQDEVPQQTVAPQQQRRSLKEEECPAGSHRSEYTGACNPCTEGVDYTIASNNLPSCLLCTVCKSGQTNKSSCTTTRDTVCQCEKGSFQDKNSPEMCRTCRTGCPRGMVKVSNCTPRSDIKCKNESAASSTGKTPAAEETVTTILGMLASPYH
The assay can be described thus: yeast display, flow cytometry MFI. A general note: In flow cytometry, cells or beads pass a laser one at a time.

Assay [5] concerns the target T3, DcR1 (UniProt O14798 26-221, limits assumed).
T3 sequence (looked up): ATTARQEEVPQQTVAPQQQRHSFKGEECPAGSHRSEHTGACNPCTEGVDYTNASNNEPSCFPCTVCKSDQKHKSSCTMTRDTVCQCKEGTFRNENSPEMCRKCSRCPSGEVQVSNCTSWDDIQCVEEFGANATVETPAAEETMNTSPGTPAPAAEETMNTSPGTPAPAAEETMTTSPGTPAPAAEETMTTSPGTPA
Nature of the assay: yeast display, flow cytometry MFI.

Assay [6] deals with T1, TNFα, extracellular domain (amino acid …). The assay can be described thus: affinity ELISA, target coated on the plate. The method, then: as §1
In order to analyze the affinities of the Fc-fused anti-DR4, -DR5 and -TNFα Kringle domains to target molecules, the affinities of the Fc-fused anti-DR4, -DR5 and -TNFα Kringle domains to the target molecules were analyzed using ELISA, as described in Example 8.

In assay [7] the target is T2, DcR2. Nature of the assay: ELISA, coated target, single binder concentration not given, A405.
For assay [8], the target named is T3, DcR1. Described as above.
For assay [9], the target named is T4, human-derived cell death receptor 4, extracellular domain (amino acid residues 1-216), 6xHis tag (human, UniProt O00220 24-239).
T4 construct: extracellular domain; Expressed in E. coli; biotinylated for sorting and flow cytometry; residues 1-216; also called DR4; TRAIL-receptor 1
Described as above.

The target in assay [10] is T1, TNFα, extracellular domain (amino acid …). The assay is described as above.
Assay [11] deals with T5, human-derived cell death receptor 5, extracellular domain (amino acid residues 1-130), 6xHis tag (human, UniProt O14763 56-210).
T5 construct: extracellular domain; Expressed in E. coli; biotinylated for sorting and flow cytometry; also called DR5; TRAIL-receptor 2
The assay can be described thus: competitive ELISA on coated DR5, biotinylated KD506 with TRAIL (amount not given), A405.

Assay [12] addresses T5, human-derived cell death receptor 5, …. Nature of the assay: ELISA, coated target, A405.
Assay [13] shares this target. The assay can be described thus: ELISA, coated DR5, A405.
Assay [14] has the same target. The assay can be described thus: ELISA on coated DR5, KD506 alone, A405.
The target is the same in assay [15]. The assay can be described thus: ELISA, coated target, A405 [upper panel]. The method, then: as §1
For another assay, the target named is T6, cell surface DR4 (human, UniProt O00220 24-468).
T6 construct: whole, on cells; also called DR4 on cell surfaces
The assay can be described thus: flow cytometry on BJAB(DR5-/-) cells, MFI.

The target of assay [16] is T2, DcR2. The assay can be described thus: yeast display, flow cytometry MFI [panel KD506].
In assay [17] the target is T3, DcR1. The assay can be described thus: yeast display, flow cytometry MFI [panel KD506].
In assay [18] the target is T4, human-derived cell death receptor 4, …. The assay can be described thus: yeast display, flow cytometry MFI [panel KD506].
The target of another assay is cell surface DR5 (human, UniProt O14763 56-440). Nature of the assay: cell-based or functional assay.
The target in assay [19] is T1, TNFα, extracellular domain (amino acid …). Nature of the assay: ELISA, homo-dimer against monomer.
Assay [20] shares this target. The assay can be described thus: ELISA, target coated on the plate.

T1 sequence (P01375 other isoform, or with tags, fused parts or gaps limits assumed): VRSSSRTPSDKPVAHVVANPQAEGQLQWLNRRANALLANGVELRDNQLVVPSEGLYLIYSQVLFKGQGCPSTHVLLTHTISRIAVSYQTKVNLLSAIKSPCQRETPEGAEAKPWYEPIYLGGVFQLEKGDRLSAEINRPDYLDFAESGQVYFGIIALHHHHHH

B1: KDT26 (designed binder)
chain: CPRDQGNQYDGFRYGTYRGHRCQHWTRDEPHFHGFGHQHKYTYRHKKNYCRNPDARPRPWCFTHRYQNRNELCHQPRC
notes: Soluble monomer from Pichia pastoris; also called KRT26; anti-TNFα Kringle domain variant KDT26; not shown: C-terminal myc tag-6xHis tag of pPICZaA
Take B1: the “EC50 (read off the curve)” value in assay [1] and in assay [2] was about 80 nM each time. Further, in assay [3], the “IC50 (50% inhibiting concentration) of TNFα-mediated cell death, WEHI 164, MTT assay” value stood at 780 nM. Also, the binding result in the assay with DcR2 [4] and in the assay with DcR1 [5] was “no binding” in each case.

B2: KDT26-Fc (Fc fusion)
chain: B1 chain
notes: Disulfide-linked dimer from Pichia pastoris; also called KRT26-Fc; Fc-fused anti-TNFα Kringle domain KDT26; not shown: Fc domain region from a hinge of human immunoglobulin G1
Regarding B2, the affinity in [6] turned out to be 3.8 nM. In addition, the “IC50 (50% inhibiting concentration) of TNFα-mediated cell death, WEHI 164, MTT assay” value in assay [3] amounted to 5.2 nM.

B3: PgnKD2 (other, human, UniProt P00747 184-262, looked up)
single chain: ECMHCSGENYDGKISKTMSGLECQAWDSQSPHAHGYIPSKFPNKNLKKNYCRNPDRELRPWCFTTDPNKRWELCDIPRC
notes: isolated Kringle domain 2; negative control; also called wild-type plasminogen Kringle domain 2
On to B3, for which the binding result (with DcR2 [7]; with DcR1 [8]; in assay [9]; in assay [10]) was “no binding” each time.

B4: KD506 (designed binder)
chain: CPEDRGHEYDGDGDKTNRGHGCQYWDQNKPHHHGHRDKDKFKHRIKKNYCRNPDYETGPWCFTNRYRNKNELCHEPRC
notes: Soluble monomer from Pichia pastoris; also called anti-DR5 Kringle domain variant KD506; KR506; not shown: C-terminal myc tag-6xHis tag of pPICZaA
For the molecule B4, the “EC50 (read off the curve)” value in assay [11] was about 100 nM; in assay [12], about 300 nM; in [13] it was about 300 nM; in assay [14] it was about 100 nM; in [15], about 300 nM. For the same molecule, the binding result (in the assay with cell surface DR4; in the assay with DcR2 [16]; with DcR1 [17]; in assay [18]) was “no binding” each time. The “EC50 (a concentration of protein causing a 50% cell death), HL60, MTT assay” value in the assay with cell surface DR5 stood at 210 nM. Also, the “EC50 (a concentration of protein causing a 50% cell death), Jurkat, MTT assay” value with cell surface DR5 was 200 nM.

B5: anti-TNFα KDT26 homo-dimer (designed binder)
chain: CPRDQGNQYDGFRYGTYRGHRCQHWTRDEPHFHGFGHQHKYTYRHKKNYCRNPDARPRPWCFTHRYQNRNELCHQPRCGGGGSGGGGSGGGGSGGGGSCPRDQGNQYDGFRYGTYRGHRCQHWTRDEPHFHGFGHQHKYTYRHKKNYCRNPDARPRPWCFTHRYQNRNELCHQPRC
As for B5, in [19], the “fold increase of affinity against the monomer” value is about 10 fold. Further, in [20], the affinity value turned out to be 8 nM.

The values are drawn from patent publication US20120021993A1 (AJOU UNIVERSITY INDUSTRY ACADEMIC COOPERATION FOUNDATION, published 2012).
